In this data set the target is Gelsolin (full-length) (Homo sapiens, UniProt P06396 P06396:28-782). In words: ELONA; aptamer-Ag nanoparticles coated directly, gelsolin 2 ug/well, anti-gelsolin detection; room temperature. As to conditions: tags: Sigma; His tag inferred from capture by anti-His antibody; label: silver nanoparticle. The procedure: In case of aptamer based Ag nanoparticles formation, reaction mixture was prepared by adding 18 μl of Aptamer 10.10R (SEQ ID No. 8) (4.86 μg/μl or 18 pmoles/μl) in each 0.2 ml of reaction volume of buffer (25 mM tris pH 8, 150 mM NaCl, 5 mM MgCl₂, 10 mM KCl, 0.01% tween and 2 mM CaCl₂) with 7.2 μl of AgNO₃ of 5 mM stock solution to form Ag nanoparticles. The final molar ratio of silver ions to aptamer 10.10R was kept constant at […]. Treated the ELISA plate with 1 μg/well streptavidin (1 mg/ml) and incubated the plate overnight at 4° C. For aptamer based Ag nanoparticles coating streptavidin was not used. The wells were blocked with 3% bovine serum albumin (BSA) in PBS and kept at room temperature for 2 hours to saturate excess binding sites. The wells were then washed three times with PBST and further added with 5, 10 and 20 μl of aptamer only and aptamer Ag nanoparticles (18 pmoles/μl), making aptamer working concentration of […]. All the coatings were performed in duplicates for two conditions one with and one without gelsolin in next step. […] The absorbance was measured with a multiskan ELISA reader at 450 nm.
Chain of Gelsolin (full-length) (P06396 28-782, one chain of several): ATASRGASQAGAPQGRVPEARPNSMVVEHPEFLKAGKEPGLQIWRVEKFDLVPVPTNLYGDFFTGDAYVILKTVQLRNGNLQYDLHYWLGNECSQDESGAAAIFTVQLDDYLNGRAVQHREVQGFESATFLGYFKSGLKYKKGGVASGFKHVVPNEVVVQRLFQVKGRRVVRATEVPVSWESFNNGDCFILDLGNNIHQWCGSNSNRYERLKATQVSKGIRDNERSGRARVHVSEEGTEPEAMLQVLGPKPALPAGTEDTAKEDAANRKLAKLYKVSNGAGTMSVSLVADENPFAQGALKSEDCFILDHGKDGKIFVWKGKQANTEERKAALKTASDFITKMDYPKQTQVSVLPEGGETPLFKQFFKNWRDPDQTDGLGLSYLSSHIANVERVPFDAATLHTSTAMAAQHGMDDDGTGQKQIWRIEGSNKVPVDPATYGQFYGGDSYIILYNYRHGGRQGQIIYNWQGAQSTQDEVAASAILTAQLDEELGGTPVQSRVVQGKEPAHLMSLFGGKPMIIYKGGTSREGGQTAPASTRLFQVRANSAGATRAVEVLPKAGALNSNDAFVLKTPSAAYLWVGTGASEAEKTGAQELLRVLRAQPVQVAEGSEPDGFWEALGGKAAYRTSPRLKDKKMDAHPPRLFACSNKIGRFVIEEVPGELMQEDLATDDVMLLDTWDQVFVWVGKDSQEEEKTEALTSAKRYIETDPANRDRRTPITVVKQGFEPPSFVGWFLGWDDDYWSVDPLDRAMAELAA
It was observed that the coated aptamer or aptamer_Ag nanoparticles were captured by gelsolin which was further detected using anti-gelsolin antibody using an indirect ELISA based method (FIG. 4C). […]

B1: Aptamer 10.10R coated on Ag nanoparticles (ssDNA)
DNA: TCAAGTGGTCATGTACTAGTCAAGCACTTTCGCTGCTCGCTGGCGCCGCGCCCATCATATGTCCTTCTCTTCCCTA
The molecule B1 showed a binding signal of 3 fold vs aptamer only.
